Laboratory results taken from article doi:10.1101/2025.03.16.643542 (bioRxiv, 2025).

B1: nanobody 5B1 (VHH)
VHH: QVQLQESGGGLVQAGDSLRLSCAASGRTFSTYTMGWFRQAPGKEREFVAGIGYSDDNTYYTDSVKGRFTVSRGSAKNTVYLQMNSLKPEDTAVYYCAARVGDVVFTIADNYAYWGQGTQVTVSS
B2: nanobody 5B12 (VHH)
VHH: QVQLQESGGGLVQTGDSLRLSCAASGGTLTSYNMGWFRQAPGKDREFVAGISWSGGTGTYYADSVKGRFTISTDNAKNTVYLQMDSLKPDDTAVYYCAVRRRAYSVYTRPGLYDYWGQGTQVTVSS

Molecular target: epidermal growth factor receptor (EGFR) on EGFR^hi A431 cells (Homo sapiens, A431 cells, UniProt P00533)
Experiment: flow cytometry on cells

Row | Binder | EC50 [nM]
1 | B1 | 76.9
2 | B2 | 4.7
